Test results taken from the Immune Epitope Database (IEDB).

Legend:
HLA-B*08:01 = assay: IEDB peptide-MHC binding, purified MHC/competitive/fluorescence; ≥ and ≤ were set here for values at or beyond the usual limits of such assays
HLA-A*01:01 = assay: IEDB peptide-MHC binding, purified MHC/direct/fluorescence; filed as Kd, often an IC50 or EC50 that approximates it; ≥ and ≤ were set here for values at or beyond the usual limits of such assays; conditions: source organism: Vibrio vulnificus
HLA-A*02:01 [1] = assay: as above
HLA-A*03:01 = assay: as above; conditions: source organism: Vibrio vulnificus
HLA-A*11:01 [2] = assay: as above
HLA-A*24:02 = assay: as above; conditions: source organism: Vibrio vulnificus
HLA-A*26:01 = assay: as above; conditions: source organism: Vibrio vulnificus CMCP6
HLA-A*31:01 [3] = assay: as above; conditions: source organism: Vibrio vulnificus
HLA-A*69:01 = assay: as above
HLA-B*07:02 = assay: as above; conditions: source organism: Vibrio vulnificus
HLA-B*15:01 = assay: as above
HLA-B*15:09 = assay: as above; conditions: source organism: Vibrio vulnificus CMCP6
HLA-B*27:05 = assay: as above
HLA-B*40:01 = assay: as above; conditions: source organism: Vibrio vulnificus
HLA-B*44:02 = assay: as above; conditions: source organism: Vibrio vulnificus
HLA-B*46:01 = assay: as above; conditions: source organism: Vibrio vulnificus
HLA-B*58:01 = assay: as above; conditions: source organism: Vibrio vulnificus
HLA-A*11:01 [4] = assay: IEDB peptide-MHC binding, purified MHC/competitive/fluorescence; filed as Kd, often an IC50 or EC50 that approximates it; ≥ and ≤ were set here for values at or beyond the usual limits of such assays; conditions: source organism: Listeria monocytogenes serotype 4b str. CLIP 80459
HLA-A*31:01 [5] = assay: as above; conditions: source organism: Listeria monocytogenes serotype 4b str. CLIP 80459
HLA-A*68:23 = assay: as above; conditions: source organism: Listeria monocytogenes serotype 4b str. CLIP 80459
HLA-B*15:42 = assay: as above; conditions: source organism: Listeria monocytogenes serotype 4b str. CLIP 80459
HLA-B*45:06 = assay: as above; conditions: source organism: Listeria monocytogenes serotype 4b str. CLIP 80459
HLA-B*83:01 = assay: as above; conditions: source organism: Listeria monocytogenes serotype 4b str. CLIP 80459
HLA-C*07:02 = assay: IEDB peptide-MHC binding, purified MHC/direct/fluorescence; filed as Kd, often an IC50 or EC50 that approximates it; ≥ and ≤ were set here for values at or beyond the usual limits of such assays
HLA-A*02:01 [6] = assay: IEDB peptide-MHC binding, purified MHC/competitive/fluorescence; ≥ and ≤ were set here for values at or beyond the usual limits of such assays; conditions: source organism: Zaire ebolavirus
HLA-A*02:01 [7] = assay: IEDB peptide-MHC binding, purified MHC/competitive/fluorescence; filed as Kd, often an IC50 or EC50 that approximates it; ≥ and ≤ were set here for values at or beyond the usual limits of such assays; conditions: source organism: Burkholderia orbicola
HLA-A*02:06 = assay: as above; conditions: source organism: Burkholderia orbicola
HLA-C*12:03 = assay: IEDB peptide-MHC binding, purified MHC/direct/fluorescence; filed as Kd, often an IC50 or EC50 that approximates it; ≥ and ≤ were set here for values at or beyond the usual limits of such assays; conditions: source organism: Homo sapiens
HLA-A*68:02 = assay: IEDB peptide-MHC binding, purified MHC/competitive/fluorescence; filed as Kd, often an IC50 or EC50 that approximates it; ≥ and ≤ were set here for values at or beyond the usual limits of such assays; conditions: source organism: Campylobacter jejuni subsp. jejuni 81-176
HLA-C*14:02 = assay: IEDB peptide-MHC binding, purified MHC/direct/fluorescence; filed as Kd, often an IC50 or EC50 that approximates it; ≥ and ≤ were set here for values at or beyond the usual limits of such assays; conditions: source organism: Human herpesvirus 4 strain B95-8
HLA-A*02:01 [8] = assay: IEDB peptide-MHC binding, purified MHC/competitive/radioactivity; ≥ and ≤ were set here for values at or beyond the usual limits of such assays; conditions: source organism: Hepatitis B virus
HLA-C*15:02 = assay: IEDB peptide-MHC binding, purified MHC/direct/fluorescence; filed as Kd, often an IC50 or EC50 that approximates it; ≥ and ≤ were set here for values at or beyond the usual limits of such assays; conditions: source organism: Vibrio cholerae MAK 757
[9] = source organism: Zaire ebolavirus
[10] = source organism: Vibrio vulnificus
[11] = source organism: Vibrio cholerae

Question: For SGKNIKRTL, which IC50 (HLA-B*08:01; [9]) is on record?
Answer: 63600 nM

Question: Which results are given for QSDIAGAIH?
Answer: Kd (HLA-A*01:01): 1660 nM; Kd (HLA-A*02:01 [1]; [10]): ≥ 20000 nM; Kd (HLA-A*03:01): ≥ 20000 nM; Kd (HLA-A*11:01 [2]; [10]): ≥ 20000 nM; Kd (HLA-A*24:02): ≥ 20000 nM; Kd (HLA-A*26:01): ≥ 20000 nM; Kd (HLA-A*31:01 [3]): ≥ 20000 nM; Kd (HLA-A*69:01; [10]): ≥ 20000 nM; Kd (HLA-B*07:02): ≥ 20000 nM; Kd (HLA-B*15:01; [10]): ≥ 20000 nM; Kd (HLA-B*15:09): ≥ 20000 nM; Kd (HLA-B*27:05; [10]): ≥ 20000 nM; Kd (HLA-B*40:01): ≥ 20000 nM; Kd (HLA-B*44:02): ≥ 20000 nM; Kd (HLA-B*46:01): ≥ 20000 nM; Kd (HLA-B*58:01): ≥ 20000 nM

Question: How did the Kd (HLA-A*11:01 [4]) turn out when YTYDLAEYR was run?
Answer: 21.3 nM

Question: What about the Kd (HLA-A*31:01 [5]) of the same sequence?
Answer: 8.3 nM

Question: What about the Kd (HLA-A*68:23) of the same sequence?
Answer: ≤ 0.1 nM

Question: And the Kd (HLA-B*15:42)?
Answer: ≥ 5000 nM

Question: And the Kd (HLA-B*45:06)?
Answer: ≥ 5000 nM

Question: And the Kd (HLA-B*83:01)?
Answer: ≥ 5000 nM

Question: MLYQLLEAV was tested. Which IC50 (HLA-B*08:01; source organism: Vaccinia virus Copenhagen) did it give?
Answer: ≥ 303000 nM

Question: KRVDWSVEY was tested. Which Kd (HLA-A*11:01 [2]; source organism: SARS-CoV1) did it give?
Answer: 8740 nM

Question: What about the Kd (HLA-B*15:01; source organism: SARS-CoV1) of the same sequence?
Answer: 2720 nM

Question: And the Kd (HLA-B*27:05; source organism: SARS-CoV1)?
Answer: 258 nM

Question: What about the Kd (HLA-C*07:02; source organism: SARS-CoV1) of the same sequence?
Answer: 261 nM

Question: Which results are given for RGVRLHPLA?
Answer: IC50 (HLA-A*02:01 [6]): ≥ 87800 nM; IC50 (HLA-B*08:01; [9]): ≥ 242000 nM

Question: How did the Kd (HLA-C*07:02; source organism: Saccharomyces cerevisiae) turn out when VRKCLQLIF was run?
Answer: 53 nM

Question: For MQACPVDAI, which Kd (HLA-A*02:01 [7]) is on record?
Answer: 8.6 nM

Question: And the Kd (HLA-A*02:06)?
Answer: 1.3 nM

Question: For FLLENAAYL, which Kd (HLA-C*07:02; source organism: Homo sapiens) is on record?
Answer: 354 nM

Question: What about the Kd (HLA-C*12:03) of the same sequence?
Answer: 291 nM

Question: For SVAHSAYEL, which Kd (HLA-A*68:02) is on record?
Answer: ≤ 0.1 nM

Question: Which Kd (HLA-C*14:02) does the source give for TVFYNIPPM here?
Answer: 3 nM

Question: FLPNDFFPSV was tested. Which IC50 (HLA-A*02:01 [8]) did it give?
Answer: 1.1 nM

Question: With KLTEEIIKL as the sequence, how does the Kd (HLA-A*02:01 [1]; [11]) read?
Answer: 42.1 nM

Question: What about the Kd (HLA-A*69:01; [11]) of the same sequence?
Answer: 2210 nM

Question: What about the Kd (HLA-C*15:02) of the same sequence?
Answer: ≥ 20000 nM
